The values below come from article PMC8661717 (Protein Science : A Publication of the Protein Society, 2021).

Settings in all cases: both partners purified
Experiment [1] deals with T1, Full-length human primosome (DNA polymerase α–primase complex) (human, UniProt P09884 1-1462; Q14181 1-598; P49642 1-420; P49643 1-509).
T1 construct: also called Pol α–primase; full-length primosome
The experiment in a line: pull-down.

In experiment [2] the target is T2, Truncated human primosome (Pol α 334-1462; B subunit 149-598; PriS 1-420; PriL 1-509) (human, UniProt P09884 334-1462; Q14181 149-598; P49642 1-420; P49643 1-509).
T2 construct: also called truncated primosome; Pol α–primase
In words: pull-down.

The target of experiment [3] is T2, Truncated human primosome (Pol α …). In words: cryo-EM structure.
For experiment [4], the target named is T3, Pol α catalytic subunit (334-1462), as subunit of the truncated human primosome (human, UniProt P09884 334-1462).
T3 construct: also called DNA polymerase α; catalytic subunit of Pol α
T3 sequence (looked up): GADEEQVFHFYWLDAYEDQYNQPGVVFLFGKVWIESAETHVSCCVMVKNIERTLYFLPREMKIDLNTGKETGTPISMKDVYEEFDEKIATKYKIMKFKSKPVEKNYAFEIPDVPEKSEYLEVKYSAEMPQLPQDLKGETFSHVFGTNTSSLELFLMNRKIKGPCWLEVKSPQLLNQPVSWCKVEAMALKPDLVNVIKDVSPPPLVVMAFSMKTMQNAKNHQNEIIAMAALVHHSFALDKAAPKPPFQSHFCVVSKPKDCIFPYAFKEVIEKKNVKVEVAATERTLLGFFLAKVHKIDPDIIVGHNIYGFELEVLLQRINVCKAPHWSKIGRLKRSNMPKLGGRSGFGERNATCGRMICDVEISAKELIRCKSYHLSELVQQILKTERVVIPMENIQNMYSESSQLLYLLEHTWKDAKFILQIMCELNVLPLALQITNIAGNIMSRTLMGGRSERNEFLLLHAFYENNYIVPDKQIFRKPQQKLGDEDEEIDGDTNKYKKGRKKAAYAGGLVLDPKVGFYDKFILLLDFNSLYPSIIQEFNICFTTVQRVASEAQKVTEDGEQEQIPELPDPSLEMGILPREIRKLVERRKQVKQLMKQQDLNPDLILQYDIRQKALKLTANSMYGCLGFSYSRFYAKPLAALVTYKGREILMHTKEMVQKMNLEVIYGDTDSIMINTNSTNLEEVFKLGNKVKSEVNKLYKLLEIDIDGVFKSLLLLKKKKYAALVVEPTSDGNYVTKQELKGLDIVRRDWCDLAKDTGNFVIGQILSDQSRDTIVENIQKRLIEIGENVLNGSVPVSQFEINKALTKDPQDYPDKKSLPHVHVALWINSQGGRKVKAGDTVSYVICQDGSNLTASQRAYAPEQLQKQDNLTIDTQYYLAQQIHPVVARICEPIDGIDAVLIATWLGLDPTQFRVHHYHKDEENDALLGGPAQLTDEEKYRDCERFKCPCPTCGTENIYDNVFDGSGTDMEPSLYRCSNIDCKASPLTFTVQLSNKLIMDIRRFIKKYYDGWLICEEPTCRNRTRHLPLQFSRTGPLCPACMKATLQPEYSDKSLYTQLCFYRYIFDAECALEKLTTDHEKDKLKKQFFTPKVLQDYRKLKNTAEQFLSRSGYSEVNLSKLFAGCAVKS
In words: cryo-EM structure.

T2 sequence (Q14181 149-598, chain 2 of 3): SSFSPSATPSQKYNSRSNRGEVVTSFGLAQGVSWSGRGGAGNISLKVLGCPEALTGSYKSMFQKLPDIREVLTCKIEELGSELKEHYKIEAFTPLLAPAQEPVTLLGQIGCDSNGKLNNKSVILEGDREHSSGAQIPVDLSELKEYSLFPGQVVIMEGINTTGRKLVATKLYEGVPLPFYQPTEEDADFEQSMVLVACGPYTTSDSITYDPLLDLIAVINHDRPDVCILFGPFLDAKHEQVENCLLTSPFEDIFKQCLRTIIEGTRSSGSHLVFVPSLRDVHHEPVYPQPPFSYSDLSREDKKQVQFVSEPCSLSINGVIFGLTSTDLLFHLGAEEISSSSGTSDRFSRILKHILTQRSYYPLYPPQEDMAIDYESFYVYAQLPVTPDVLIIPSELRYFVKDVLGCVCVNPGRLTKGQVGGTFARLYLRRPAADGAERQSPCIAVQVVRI
T2 sequence (P49642 whole entry, chain 3 of 3, the tested form may be a part): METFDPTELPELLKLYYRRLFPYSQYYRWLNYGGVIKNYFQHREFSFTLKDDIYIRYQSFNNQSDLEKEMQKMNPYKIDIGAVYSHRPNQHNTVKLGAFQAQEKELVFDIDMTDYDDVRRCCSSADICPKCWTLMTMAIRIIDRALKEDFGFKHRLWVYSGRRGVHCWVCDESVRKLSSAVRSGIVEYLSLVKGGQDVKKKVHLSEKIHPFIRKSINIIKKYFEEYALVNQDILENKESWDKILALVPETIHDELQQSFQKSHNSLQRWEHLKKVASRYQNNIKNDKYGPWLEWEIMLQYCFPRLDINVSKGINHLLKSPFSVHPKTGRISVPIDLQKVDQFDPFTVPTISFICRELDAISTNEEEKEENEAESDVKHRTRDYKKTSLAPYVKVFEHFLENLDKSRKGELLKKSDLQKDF
T2 sequence (P49643 whole entry, chain 4 of 3, the tested form may be a part): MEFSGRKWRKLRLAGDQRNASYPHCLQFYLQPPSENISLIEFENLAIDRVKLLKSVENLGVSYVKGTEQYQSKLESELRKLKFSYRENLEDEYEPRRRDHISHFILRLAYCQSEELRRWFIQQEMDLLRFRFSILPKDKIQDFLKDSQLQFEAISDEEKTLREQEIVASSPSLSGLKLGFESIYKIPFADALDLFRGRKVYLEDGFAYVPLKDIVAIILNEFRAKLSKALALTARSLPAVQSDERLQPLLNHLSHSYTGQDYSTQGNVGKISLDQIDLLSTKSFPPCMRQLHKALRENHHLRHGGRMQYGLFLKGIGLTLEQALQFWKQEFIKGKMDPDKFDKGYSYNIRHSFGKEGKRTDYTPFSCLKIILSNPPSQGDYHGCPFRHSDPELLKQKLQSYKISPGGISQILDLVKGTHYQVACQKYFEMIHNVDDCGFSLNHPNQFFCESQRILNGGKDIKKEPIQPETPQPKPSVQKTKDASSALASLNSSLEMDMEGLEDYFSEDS
T1 sequence (Q14181 whole entry, chain 2 of 3): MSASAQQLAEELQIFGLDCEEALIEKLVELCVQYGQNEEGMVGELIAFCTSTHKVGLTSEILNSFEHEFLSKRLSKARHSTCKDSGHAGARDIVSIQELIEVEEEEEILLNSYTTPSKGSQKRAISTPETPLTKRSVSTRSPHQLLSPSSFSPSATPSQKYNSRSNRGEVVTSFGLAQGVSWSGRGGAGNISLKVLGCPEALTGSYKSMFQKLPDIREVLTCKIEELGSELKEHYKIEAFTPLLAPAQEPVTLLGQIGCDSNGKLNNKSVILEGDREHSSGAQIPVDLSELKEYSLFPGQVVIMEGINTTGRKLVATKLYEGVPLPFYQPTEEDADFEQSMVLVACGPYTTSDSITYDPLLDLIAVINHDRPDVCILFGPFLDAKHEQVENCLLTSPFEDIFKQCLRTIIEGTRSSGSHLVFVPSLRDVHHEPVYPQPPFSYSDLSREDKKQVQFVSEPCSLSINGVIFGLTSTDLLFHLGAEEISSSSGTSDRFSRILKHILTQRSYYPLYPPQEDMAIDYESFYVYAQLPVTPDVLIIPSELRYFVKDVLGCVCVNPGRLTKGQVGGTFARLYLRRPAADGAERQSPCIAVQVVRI
T1 sequence (P49642 whole entry, chain 3 of 3): as the sequence (P49642 whole entry, chain 3 of 3, the tested form may be a part) above
T1 sequence (P49643 whole entry, chain 4 of 3): as the sequence (P49643 whole entry, chain 4 of 3, the tested form may be a part) above

B1: His6-MBP-tagged SARS-CoV nonstructural protein 1 (nsp1), full length (natural protein)
chain: MESLVLGVNEKTHVQLSLPVLQVRDVLVRGFGDSVEEALSEAREHLKNGTCGLVELEKGVLPQLEQPYVFIKRSDALSTNHGHKVVELVAEMDGIQYGRSGITLGVLVPHVGETPIAYRNVLLRKNGNKGAGGHSYGIDLKSYDLGDELGTDPIEDYEQNWNTKHGSGALRELTRELNGG
As to B1, the binding result in experiment [1] and in experiment [2] was “binds” each time.

B2: SARS-CoV nsp1 (13-127), His6-MBP tag cleaved (domain or fragment)
chain: HVQLSLPVLQVRDVLVRGFGDSVEEALSEAREHLKNGTCGLVELEKGVLPQLEQPYVFIKRSDALSTNHGHKVVELVAEMDGIQYGRSGITLGVLVPHVGETPIAYRNVLLRKNG
Take B2: the binding result in experiment [3] and in experiment [4] was “binds” in each case.

B3: His6-MBP-tagged SARS-CoV nsp1 middle domain (13-127) (domain or fragment)
chain: B2 chain
Turning to B3, the binding result in experiment [2] is listed as “binds”.

B4: His6-MBP-tagged SARS-CoV-2 nsp1 middle domain (13-127) (domain or fragment)
chain: HVQLSLPVLQVRDVLVRGFGDSVEEVLSEARQHLKDGTCGLVEVEKGVLPQLEQPYVFIKRSDARTAPHGHVMVELVAELEGIQYGRSGETLGVLVPHVGEIPVAYRKVLLRKNG
Turning to B4, the binding result in experiment [2] is listed as “binds”.
